Experimental data taken from patent publication US12679878B2, “CRF2 receptor agonists and their use in therapy” (SANOFI, priority 2020, dated 2026).
Starred links: 1 amine or outer side, 2 acyl side, 3 side chain; linkers in the order of their positions; H or OH if unused. Non-standard residues stand in square brackets, D forms with d. Groups on a side chain read outwards from the residue. No end group written: not given here. *: point of attachment. C18 diacid = O=C(O)CCCCCCCCCCCCCCCCC(=O)*; γGlu = O=C(O)[C@H](CCC(=O)[*:2])N[*:1]; AEEA = NCCOCCOCC(=O)O; Aib = CC(C)(N)C(=O)O

molecular target: human corticotropin-releasing factor 2α (CRF2 α receptor) (human), Q13324; test: cell-based or functional assay
Sequence (Q13324 20-411): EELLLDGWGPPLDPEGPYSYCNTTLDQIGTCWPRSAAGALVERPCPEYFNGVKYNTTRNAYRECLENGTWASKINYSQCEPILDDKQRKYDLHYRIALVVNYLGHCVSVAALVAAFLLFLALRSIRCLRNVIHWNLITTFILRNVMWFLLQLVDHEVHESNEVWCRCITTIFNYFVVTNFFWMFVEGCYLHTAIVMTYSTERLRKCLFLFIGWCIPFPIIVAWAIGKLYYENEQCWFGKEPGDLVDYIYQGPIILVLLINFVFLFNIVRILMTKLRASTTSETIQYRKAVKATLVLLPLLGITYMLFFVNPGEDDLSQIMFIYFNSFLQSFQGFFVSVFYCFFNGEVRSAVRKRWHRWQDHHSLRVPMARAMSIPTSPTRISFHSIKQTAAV

Binder | EC50 [nM], 0% HSA [nM]
IVLSLDVPIKLK([AEEA-AEEA-γGlu-C18 diacid])QILLKQERQKKQRQQAETN[Aib]QILAQV-NH2 (N-terminus assumed; SMILES CC[C@H](C)[C@H](N)C(=O)N[C@H](C(=O)N[C@@H](CC(C)C)C(=O)N[C@@H](CO)C(=O)N[C@@H](CC(C)C)C(=O)N[C@@H](CC(=O)O)C(=O)N[C@H](C(=O)N1CCC[C@H]1C(=O)N[C@H](C(=O)N[C@@H](CCCCN)C(=O)N[C@@H](CC(C)C)C(=O)N[C@@H](CCCCNC(=O)COCCOCCNC(=O)COCCOCCNC(=O)CC[C@H](NC(=O)CCCCCCCCCCCCCCCCC(=O)O)C(=O)O)C(=O)N[C@@H](CCC(N)=O)C(=O)N[C@H](C(=O)N[C@@H](CC(C)C)C(=O)N[C@@H](CC(C)C)C(=O)N[C@@H](CCCCN)C(=O)N[C@@H](CCC(N)=O)C(=O)N[C@@H](CCC(=O)O)C(=O)N[C@@H](CCCNC(=N)N)C(=O)N[C@@H](CCC(N)=O)C(=O)N[C@@H](CCCCN)C(=O)N[C@@H](CCCCN)C(=O)N[C@@H](CCC(N)=O)C(=O)N[C@@H](CCCNC(=N)N)C(=O)N[C@@H](CCC(N)=O)C(=O)N[C@@H](CCC(N)=O)C(=O)N[C@@H](C)C(=O)N[C@@H](CCC(=O)O)C(=O)N[C@H](C(=O)N[C@@H](CC(N)=O)C(=O)NC(C)(C)C(=O)N[C@@H](CCC(N)=O)C(=O)N[C@H](C(=O)N[C@@H](CC(C)C)C(=O)N[C@@H](C)C(=O)N[C@@H](CCC(N)=O)C(=O)N[C@H](C(N)=O)C(C)C)[C@@H](C)CC)[C@@H](C)O)[C@@H](C)CC)[C@@H](C)CC)C(C)C)C(C)C) [SEQ ID NO: 75] | 0.48
IVLSLDVPIKLK([AEEA-AEEA-γGlu-C18 diacid])QILLEQERQKKQRQQAETN[Aib]QILAQV-NH2 (N-terminus assumed; SMILES CC[C@H](C)[C@H](N)C(=O)N[C@H](C(=O)N[C@@H](CC(C)C)C(=O)N[C@@H](CO)C(=O)N[C@@H](CC(C)C)C(=O)N[C@@H](CC(=O)O)C(=O)N[C@H](C(=O)N1CCC[C@H]1C(=O)N[C@H](C(=O)N[C@@H](CCCCN)C(=O)N[C@@H](CC(C)C)C(=O)N[C@@H](CCCCNC(=O)COCCOCCNC(=O)COCCOCCNC(=O)CC[C@H](NC(=O)CCCCCCCCCCCCCCCCC(=O)O)C(=O)O)C(=O)N[C@@H](CCC(N)=O)C(=O)N[C@H](C(=O)N[C@@H](CC(C)C)C(=O)N[C@@H](CC(C)C)C(=O)N[C@@H](CCC(=O)O)C(=O)N[C@@H](CCC(N)=O)C(=O)N[C@@H](CCC(=O)O)C(=O)N[C@@H](CCCNC(=N)N)C(=O)N[C@@H](CCC(N)=O)C(=O)N[C@@H](CCCCN)C(=O)N[C@@H](CCCCN)C(=O)N[C@@H](CCC(N)=O)C(=O)N[C@@H](CCCNC(=N)N)C(=O)N[C@@H](CCC(N)=O)C(=O)N[C@@H](CCC(N)=O)C(=O)N[C@@H](C)C(=O)N[C@@H](CCC(=O)O)C(=O)N[C@H](C(=O)N[C@@H](CC(N)=O)C(=O)NC(C)(C)C(=O)N[C@@H](CCC(N)=O)C(=O)N[C@H](C(=O)N[C@@H](CC(C)C)C(=O)N[C@@H](C)C(=O)N[C@@H](CCC(N)=O)C(=O)N[C@H](C(N)=O)C(C)C)[C@@H](C)CC)[C@@H](C)O)[C@@H](C)CC)[C@@H](C)CC)C(C)C)C(C)C) [SEQ ID NO: 72] | 0.65

The next lines start with the values.

EC50 [nM], 0% HSA [nM] | Binder
2.6 | IVLSLDVPIKLK([AEEA-AEEA-γGlu-C18 diacid])QILLEQERQKKQRQKAETN[Aib]QILAQV-NH2 (N-terminus assumed; SMILES CC[C@H](C)[C@H](N)C(=O)N[C@H](C(=O)N[C@@H](CC(C)C)C(=O)N[C@@H](CO)C(=O)N[C@@H](CC(C)C)C(=O)N[C@@H](CC(=O)O)C(=O)N[C@H](C(=O)N1CCC[C@H]1C(=O)N[C@H](C(=O)N[C@@H](CCCCN)C(=O)N[C@@H](CC(C)C)C(=O)N[C@@H](CCCCNC(=O)COCCOCCNC(=O)COCCOCCNC(=O)CC[C@H](NC(=O)CCCCCCCCCCCCCCCCC(=O)O)C(=O)O)C(=O)N[C@@H](CCC(N)=O)C(=O)N[C@H](C(=O)N[C@@H](CC(C)C)C(=O)N[C@@H](CC(C)C)C(=O)N[C@@H](CCC(=O)O)C(=O)N[C@@H](CCC(N)=O)C(=O)N[C@@H](CCC(=O)O)C(=O)N[C@@H](CCCNC(=N)N)C(=O)N[C@@H](CCC(N)=O)C(=O)N[C@@H](CCCCN)C(=O)N[C@@H](CCCCN)C(=O)N[C@@H](CCC(N)=O)C(=O)N[C@@H](CCCNC(=N)N)C(=O)N[C@@H](CCC(N)=O)C(=O)N[C@@H](CCCCN)C(=O)N[C@@H](C)C(=O)N[C@@H](CCC(=O)O)C(=O)N[C@H](C(=O)N[C@@H](CC(N)=O)C(=O)NC(C)(C)C(=O)N[C@@H](CCC(N)=O)C(=O)N[C@H](C(=O)N[C@@H](CC(C)C)C(=O)N[C@@H](C)C(=O)N[C@@H](CCC(N)=O)C(=O)N[C@H](C(N)=O)C(C)C)[C@@H](C)CC)[C@@H](C)O)[C@@H](C)CC)[C@@H](C)CC)C(C)C)C(C)C) [SEQ ID NO: 73]
2.12 | IVLSLDVPIKLK([AEEA-AEEA-γGlu-C18 diacid])QILLEQERQKKQREQAETN[Aib]QILERV-NH2 (N-terminus assumed; SMILES CC[C@H](C)[C@H](N)C(=O)N[C@H](C(=O)N[C@@H](CC(C)C)C(=O)N[C@@H](CO)C(=O)N[C@@H](CC(C)C)C(=O)N[C@@H](CC(=O)O)C(=O)N[C@H](C(=O)N1CCC[C@H]1C(=O)N[C@H](C(=O)N[C@@H](CCCCN)C(=O)N[C@@H](CC(C)C)C(=O)N[C@@H](CCCCNC(=O)COCCOCCNC(=O)COCCOCCNC(=O)CC[C@H](NC(=O)CCCCCCCCCCCCCCCCC(=O)O)C(=O)O)C(=O)N[C@@H](CCC(N)=O)C(=O)N[C@H](C(=O)N[C@@H](CC(C)C)C(=O)N[C@@H](CC(C)C)C(=O)N[C@@H](CCC(=O)O)C(=O)N[C@@H](CCC(N)=O)C(=O)N[C@@H](CCC(=O)O)C(=O)N[C@@H](CCCNC(=N)N)C(=O)N[C@@H](CCC(N)=O)C(=O)N[C@@H](CCCCN)C(=O)N[C@@H](CCCCN)C(=O)N[C@@H](CCC(N)=O)C(=O)N[C@@H](CCCNC(=N)N)C(=O)N[C@@H](CCC(=O)O)C(=O)N[C@@H](CCC(N)=O)C(=O)N[C@@H](C)C(=O)N[C@@H](CCC(=O)O)C(=O)N[C@H](C(=O)N[C@@H](CC(N)=O)C(=O)NC(C)(C)C(=O)N[C@@H](CCC(N)=O)C(=O)N[C@H](C(=O)N[C@@H](CC(C)C)C(=O)N[C@@H](CCC(=O)O)C(=O)N[C@@H](CCCNC(=N)N)C(=O)N[C@H](C(N)=O)C(C)C)[C@@H](C)CC)[C@@H](C)O)[C@@H](C)CC)[C@@H](C)CC)C(C)C)C(C)C) [SEQ ID NO: 74]
